Results taken from the supplement of paper PMC9170038.

System: MS2 coat protein
Assay: apparent KD of MS2 coat protein; designed switch direction (-1 OFF switch, 1 ON switch): 1; higher = weaker reporter binding
In short: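 The apparent KD reported per design is the median over clusters of curve fits to normalised cluster fluorescence. The RNA switches were transcribed on Illumina chips by stalled E. coli RNA polymerase. SNAP-549-labelled MS2 coat protein was titrated from 0.7 or 1.5 nM, doubling up to 3 µM, in Tris-HCl pH 7.5 buffer containing KCl, MgCl2, BSA, DTT, tRNA and Tween-20, with no input, 200 uM small-molecule ligand, or an oligonucleotide input.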

[1] = input ligand: microRNA oligo, concentration not stated
[2] = Eterna round: R95, input ligand: FMN 200 uM
[3] = Eterna round: R95, input ligand: microRNA oligo, concentration not stated
[4] = Eterna round: R95, input ligand: none

| Sequence | apparent KD of MS2 coat protein (input ligand: FMN 200 uM) [µM] | apparent KD of MS2 coat protein [1] [µM] | apparent KD of MS2 coat protein (input ligand: none) [µM] | apparent KD of MS2 coat protein [2] [µM] | apparent KD of MS2 coat protein [3] [µM] | apparent KD of MS2 coat protein [4] [µM] |
| --- | --- | --- | --- | --- | --- | --- |
| AAAAUGUGAUGUUACAUGAGGAUCACCCAUGUAGUGACAACUAAGGAUAUCCGAAAAAAAGGAGAGGAGAAGGUAGGAUCACAA [AK SSNG3-V2-16.2] (Eterna round: R96, puzzle: Same State NG 3) | 0.0183 | 0.0333 | 0.0463 | – | – | – |
| GUUACAUGAGGAUCACCCAUGUAUGUGUGGGAGUAAGUGUCUUAGGAUAUCUAUGAUUUAAUUUGAGAGAAGGAAGAUUGUUGU [JMF's solution 87] (Eterna round: R96, puzzle: Same State NG 3) | 0.0888 | 0.0764 | 0.102 | – | – | – |
| AGUCCAGCCUGAGCUGGACAAAAGCAUGUACAUGAGGAUCACCCAUGUCAUGUACAAGCUUAUUGCUCGUCUUAAUA [Mat - hsa-mir-208a - Mod of JL - D40] (puzzle: Sensor for hsa-mir-208a) | – | – | – | 0.226 | 0.0167 | 0.251 |
| GGUGGGUUACUACCCACACAUGAGGAUCACCCAUGUAUUGGGAAGGAUAUGGUGCCUGUGUGGUACCAGAAGGUCCUGAAGGUG [SS-NG3-LRO18] (Eterna round: R96, puzzle: Same State NG 3) | 1.36 | 1.03 | 2.13 | – | – | – |
| UAGUGCAUUAGAGGAUAUUCUUACGAAAACGUAAAGACAUGAGGAUCACCCAUGUUGUCACAUGGGAAGAAGGCUGAUGUGCUA [Omei SS(NG)2 Bv3] (Eterna round: R96, puzzle: Same State NG 2) | 0.0263 | 0.117 | 0.147 | – | – | – |
| CUGAGAUGUCAAGGAUAUCACGUCGAUUAGACGUGAGAAGGUGAUCUGUACAUGAGGAUCACCCAUGUGUUACAUGGAACUCAG [Brourd's SSNG1/1-A2 mod 10] (Eterna round: R96, puzzle: Same State NG 1) | 0.184 | 0.0309 | 0.0539 | – | – | – |
| AAACACGGCAUAACACCGUGACAUGAGGAUCACCCAUGUACACAGGAUAUCAUGGCAAAACGCCAUGAGAAGGGUGAUCAAGAC [Telate] (Eterna round: R96, puzzle: Same State NG 3) | 0.464 | 0.0681 | 0.0351 | – | – | – |
| AUACUCAUGUAAGGAUAUGCAGCCGAAACGGCUGCAGAAGGUACUAUAAUACAUGAGGAUCACCCAUGUCAAAAUAAAAUAGUU [Mat - Same State NG 1 - JL mod - D100] (Eterna round: R96, puzzle: Same State NG 1) | 0.0206 | 0.0254 | 0.025 | – | – | – |
| AUUUAACAAGCUUUUUGCUCGUCUUAUAAACAUGAGGAUCACCCAUGUAAUAGCGUGAGAGUAAAUAAAUAAAUAAU [JMF 82] (puzzle: Sensor for hsa-mir-208a) | – | – | – | 0.0171 | 0.0427 | 0.0142 |
